Laboratory results as given in US12624112 (MABWELL SHANGHAI BIOSCIENCE, dated 2026).

Legend:
[1] = molecular target: T1, ST2 on the effector cells (KU812, KU812/NF-κB-1#, HUVEC, HMC-1) (human, UniProt Q01638 19-556); assay: cell-based or functional assay
T1 sequence (looked up): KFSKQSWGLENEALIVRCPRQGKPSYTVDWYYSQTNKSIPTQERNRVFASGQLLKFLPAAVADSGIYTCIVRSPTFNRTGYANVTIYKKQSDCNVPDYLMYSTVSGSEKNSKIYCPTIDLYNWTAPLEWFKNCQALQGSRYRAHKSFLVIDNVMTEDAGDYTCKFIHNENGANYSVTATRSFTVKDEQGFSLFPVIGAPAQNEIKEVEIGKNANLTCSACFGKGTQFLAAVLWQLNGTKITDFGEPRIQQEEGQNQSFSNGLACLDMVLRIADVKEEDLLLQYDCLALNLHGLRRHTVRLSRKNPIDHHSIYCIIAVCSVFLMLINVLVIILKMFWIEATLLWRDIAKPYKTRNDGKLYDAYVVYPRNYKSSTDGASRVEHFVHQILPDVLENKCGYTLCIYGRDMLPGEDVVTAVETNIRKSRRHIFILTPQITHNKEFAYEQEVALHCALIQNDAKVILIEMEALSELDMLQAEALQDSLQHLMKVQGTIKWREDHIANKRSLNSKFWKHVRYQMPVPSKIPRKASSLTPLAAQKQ

[2] = molecular target: T2, Human ST2-his (human, UniProt Q01638-2 19-328, limits assumed); assay: SPR Biacore X100, antibody captured on protein A chip, human ST2-his injected, dissociation at pH 5.5
T2 construct: Expressed in CHO-K1; The printed range starts at Met1; also called human ST2 fused with a 6-histidine tag at the C-terminus
T2 sequence: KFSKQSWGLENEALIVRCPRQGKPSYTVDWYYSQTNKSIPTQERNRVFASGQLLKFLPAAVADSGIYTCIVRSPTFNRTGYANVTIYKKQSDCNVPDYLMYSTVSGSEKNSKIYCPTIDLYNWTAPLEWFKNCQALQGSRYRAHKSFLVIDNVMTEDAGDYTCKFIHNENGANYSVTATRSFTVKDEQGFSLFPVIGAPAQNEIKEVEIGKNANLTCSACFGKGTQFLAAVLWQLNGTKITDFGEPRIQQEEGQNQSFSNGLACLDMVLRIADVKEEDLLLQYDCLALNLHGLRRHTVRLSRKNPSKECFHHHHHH
Experimental: (§1) The experiment on the interaction between the anti-human ST2 antibodies and human ST2-his was performed using Biacore X100.
(§2) Each anti-human ST2 antibody was diluted to 2 µg/mL and captured on the surface of a protein A chip for a capture time of 60 s. Following the antibody capture, a solution of human ST2-his (2-fold gradient dilution from a starting concentration of 20 nM, to obtain 6 concentrations in total) was injected. Association was monitored for 180 s and dissociation was monitored for 700 s, and the sensor surface was regenerated by injecting a solution of glycine at pH 2.0. Kinetic data were analyzed using a simple 1:1 binding model.

[3] = molecular target: T1, ST2 on the effector cells (KU812, …); assay: cell-based or functional assay; remark: listed apart in the source
[4] = molecular target: T2, Human ST2-his; assay: SPR Biacore X100, antibody captured on protein A chip, human ST2-his injected, pH 7.4
Experimental: as §1, §2

[5] = molecular target: T1, ST2 on the effector cells (KU812, …); assay: cell-based or functional assay; remark: listed apart in the source
[6] = molecular target: T1, ST2 on the effector cells (KU812, …); assay: cell-based or functional assay; remark: listed apart in the source
[7] = molecular target: Human ST2-fc (human) (UniProt Q01638); assay: competition ELISA, coated ST2-fc, competitor IL33-his
[8] = molecular target: T1, ST2 on the effector cells (KU812, …); assay: cell-based or functional assay; remark: listed apart in the source
[9] = molecular target: T2, Human ST2-his; assay: SPR Biacore X100, ratio of kd at pH 5.5 to kd at pH 7.4
Experimental: as §1, §2

[10] = molecular target: T3, Cyno ST2-fc (cyno; human, UniProt A0A2K5UDB8 19-331); assay: SPR Biacore X100, antibody on CM5, cyno ST2-fc analyte
T3 construct: also called cyno ST2 fused with a human IgG1 Fc tag at the C-terminus
T3 sequence: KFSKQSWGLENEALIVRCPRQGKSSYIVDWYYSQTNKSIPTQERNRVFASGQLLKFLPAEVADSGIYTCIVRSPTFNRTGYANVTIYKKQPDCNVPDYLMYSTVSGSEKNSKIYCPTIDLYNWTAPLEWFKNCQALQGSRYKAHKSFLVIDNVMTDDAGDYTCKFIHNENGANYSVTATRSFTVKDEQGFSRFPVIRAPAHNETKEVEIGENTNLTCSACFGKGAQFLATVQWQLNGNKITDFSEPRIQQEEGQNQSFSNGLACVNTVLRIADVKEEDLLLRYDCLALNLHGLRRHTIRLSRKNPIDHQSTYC
Experimental: The experiment on the interactions between the anti-human ST2 antibodies and cyno ST2-fc was performed using Biacore X100, and was carried out at 25° C. in HBS-EP (1×) buffer (pH 7.4). Each antibody was immobilized on the surface of CM5 chip using an amino coupling kit. Following the antibody immobilization, a solution of cyno ST2-fc (2-fold gradient dilution from a starting concentration of 8 nM, to obtain 6 concentrations in total; the starting concentration might be increased if the signal of some sample was too low) was injected. Association was monitored for 2 min and dissociation for 10 min, and the sensor surface was regenerated by injecting a solution of glycine at pH 1.5.

[11] = molecular target: T4, ST2 on KU812 cells (UniProt Q01638 19-556, limits assumed); assay: cell-based or functional assay
T4 sequence (looked up): T1 sequence (looked up)

[12] = molecular target: T5, Human ST2-his (human, UniProt Q01638 19-328); assay: ELISA, coated human ST2-his
T5 construct: Expressed in CHO-K1; also called human ST2 fused with a 6-histidine tag at the C-terminus
T5 sequence: T2 sequence
Experimental: Human ST2-his was diluted with a coating buffer to 1 μg/mL, added into plates at 50 μL/well, and coated overnight at 4° C. Next day, the coated plates were taken, washed with PBST for 3 times, and then incubated using a blocking buffer at room temperature for 1 hr. Subsequently, the plates were washed with PBST for 3 times again. Starting at 100 ng/mL, each murine antibody was diluted 3-fold to obtain serial dilutions of 8 concentrations in total which were then added into the 96-well plates at 50 μL/well. The plates were incubated at room temperature for 1 hr, washed with PBST for 3 times; and then a goat anti-mouse secondary antibody (1:10000) was added at 50 μL/well into the 96-well plates which subsequently were incubated at room temperature for 1 hr. The 96-well plates were washed with PBST for 3 times, and TMVB was added at 50 μL/well to develop color in dark for 10 min. Afterwards, 2 M sulfuric acid was added to stop reaction; and GD values at 450 nm were read by a micro-plate reader.

[13] = molecular target: T4, ST2 on KU812 cells; assay: cell-based or functional assay; remark: listed apart in the source
[14] = molecular target: T5, Human ST2-his; assay: SPR Biacore X100, antibody on protein A, ST2-his analyte
Experimental: On the basis of the results of the quantitative screenings of murine antibodies above together, 19 murine antibodies were selected for affinity determination and in vitro pharmacological study. The experiment on the interaction between the anti-human ST2 antibodies and human ST2-his was performed using Biacore X100, and was carried out at 25° C. in HBS-EP (1×) buffer (pH 7.4).
Each anti-human ST2 antibody was diluted to 10 nM and captured on the surface of a protein A chip (for a capture time of 60 s). […] Association was monitored for 4 min and dissociation for 10 min, and the sensor surface was regenerated by injecting a solution of glycine at pH 2.0. Data generated for kinetics and affinity assay were analyzed using BIAevaluation software.

[15] = molecular target: T3, Cyno ST2-fc; assay: ELISA, coated cyno ST2-fc
Experimental: Cyno ST2-fc was diluted with a coating buffer to 1 μg/mL, added into 96-well plates at 50 μL/well and coated overnight at 4° C. Next day, the coated plates were taken, washed with PB ST for 3 times, and then incubated using a blocking buffer at room temperature for 1 hr. Subsequently, the plates were washed with PBST for 3 times again. Starting at 1000 ng/mL, each murine antibody was diluted 3-fold to obtain serial dilutions of 8 concentrations in total which were then added into the 96-well plates at 50 μL/well. The plates were incubated at room temperature for 1 hr, washed with PB ST for 3 times; and then a goat anti-mouse secondary antibody (1:10000) was added at 50 μL/well into the 96-well plates which subsequently were incubated at room temperature for 1 hr. The 96-well plates were washed with PB ST for 3 times, and TMB was added at 50 μL/well to develop color in dark for 10 min. Afterwards, 2 M sulfuric acid was added to stop reaction; and GD values at 450 nm were read by a microplate reader. It can be seen that the murine antibodies can bind to cyno ST2, with a binding trendency consistent with the binding to human ST2.

B1: 5888-379-H1L0 (antibody, human IgG4 S228P, kappa, V domains shown)
VH: QVQLVQSGAEVKKPGASVKVSCKASGYTFINYGMNWVRQAPGQRLEWMGWINTYIGEPTYGDNFKGRVTITRDTSASTAYMELSSLRSEDTAVYYCAREGEGFAYWGQGTLVTVSS
VL: DIQMTQSPSSLSASVGDRVTITCKSSQSLLYSGNQNNYLAWYQQKPGKVPKLLIYGASTRESGVPSRFSGSGSGTDFTLTISSLQPEDVATYYCQNDHSYPYTFGGGTKVEIKR
notes: Humanized antibody
IC50, inhibition of KU812-IL5 production promoted by IL-33 (human IL33-his) [1]: 0.0874 µg/mL
Maximum inhibition rate, KU812-IL5 production by IL-33 [1]: 99.4%
Relative activity compared with CNTO7160, KU812-IL5 production by IL-33 [1]: 131%
Kd [2]: 1.43 nM
koff [2]: 0.00255 s⁻¹
kon [2]: 1.79e+06 M⁻¹ s⁻¹
IC50, inhibition of HUVEC-IL6 production promoted by IL33 [3]: 16.1 µg/mL
Maximum inhibition rate, HUVEC-IL6 production by IL33 [3]: 83%
Relative activity, HUVEC-IL6 production by IL33 [3]: 16.9%
Kd [4]: 0.452 nM
koff [4]: 0.000351 s⁻¹
kon [4]: 777000 M⁻¹ s⁻¹
IC50, inhibition of KU812-IL5 production promoted by oxidized IL33 [5]: 0.0161 µg/mL
Maximum inhibition rate, KU812-IL5 production by oxidized IL33 [5]: 101%
Relative activity, KU812-IL5 production by oxidized IL33 [5]: 137%
IC50, inhibition of HMC-1 IL8 production promoted by IL33 [6]: 0.334 µg/mL
Maximum inhibition rate, HMC-1 IL8 production by IL33 [6]: 85.6%
Relative activity, HMC-1 IL8 production by IL33 [6]: 30.1%
IC50 [7]: 0.465 µg/mL
Maximum inhibition rate [7]: 89.1%
Relative activity compared with CNTO7160 [7]: 188%
IC50, inhibition of KU812-IL5 production promoted by reduced IL33 [8]: 2.87 µg/mL
Maximum inhibition rate, KU812-IL5 production by reduced IL33 [8]: 96.7%
Relative activity, KU812-IL5 production by reduced IL33 [8]: 51.1%
kd ratio of pH 5.5/pH 7.4 [9]: 7.26

B2: 5888-357H+L (antibody, V domains shown)
VH: QVQLQQSVTELVRPGASVTLSCKASGYRFTDSEMHWVKQTPVHGLEWIGTIDPETGGTVYNQKFKGKAKLTADRSSSTVSMELRSLTSEDSAVYYCTRAFYNDFDDGFAYWGQGTLVTVSA
VL: QIVMTQSPAIMSASPGEKVTLTCSASTSVSYMHWYQQKSGTSPKRWIYDTSKLASGVPARFSGSGSGTSYSLTISSMEAEDAATYYCQQWSSNPLTFGAGTKLELK
notes: murine antibody
Kd [10]: 0.129 nM
koff [10]: 0.000826 s⁻¹
kon [10]: 6.41e+06 M⁻¹ s⁻¹
Maximum inhibition rate (%), KU812 IL-5 production [11]: 71%
Relative activity (%), KU812 IL-5 production [11]: 98.5%
EC50 [12]: 0.0113 µg/mL
Relative activity (%) compared with CNTO7160 [12]: 124%
IC50 [7]: 0.62 µg/mL
Relative activity (%) compared with CNTO7160 [7]: 94.7%
IC50, activation of KU812-NF-κB reporter gene by IL33 [13]: 0.0552 µg/mL
Relative activity (%) compared with CNTO7160, KU812-NF-κB reporter [13]: 454%
Kd [14]: 0.16 nM
koff [14]: 0.0007 s⁻¹
kon [14]: 4.38e+06 M⁻¹ s⁻¹
EC50 [15]: 0.0192 µg/mL
Relative activity (%) [15]: 127%
